Measurements published in patent WO2006085967A2 (dated 2006).
Values belong to the binder of their own block, whether it stands above or below them.

Experiments:
[1] = biological target: T1, extracellular region of human V158 FcγRIIIa with C-terminal 6x His-tag and GST-tag (human, UniProt P08637 17-208); test: only one value in the row
T1 construct: extracellular domain; on glutathione acceptor beads (AlphaScreen) or immobilized on the SPR chip; also called Val158 FcγRIIIa; V158 FcγRllla; not shown: 6x His-tag; GST-tag

[2] = biological target: T1, extracellular region of human V158 …; test: SPR; receptor immobilized, antibody flowed
[3] = biological target: T1, extracellular region of human V158 …; test: SPR; fold affinity vs WT
[4] = biological target: T1, extracellular region of human V158 …; test: AlphaScreen competition; fold affinity vs WT
[5] = biological target: T1, extracellular region of human V158 …; test: SPR; fold affinity vs WT (read as two values, 1 and 1.86; could be 11.86)
[6] = biological target: T1, extracellular region of human V158 …; test: AlphaScreen competition; fold affinity vs WT (read as two values, 1 and 1.86; could be 11.86)

Fold WT (AlphaScreen or SPR) [1]: 12.8 fold
B1: S304T alemtuzumab (antibody)
chain 1: not shown
chain 2: not shown

Kd [2]: 68 nM
B3: WT alemtuzumab (antibody)
chain 1: not shown
chain 2: not shown

Fold WT (AlphaScreen or SPR) [1]: 1.51 fold
B7: V284E alemtuzumab (antibody)
chain 1: not shown
chain 2: not shown

The remaining lines, values behind:

B2: E272R alemtuzumab (antibody)
chain 1: not shown
chain 2: not shown
Fold WT (AlphaScreen or SPR) [1]: 1.38 fold

B4: E258Y alemtuzumab (antibody)
chain 1: not shown
chain 2: not shown
Fold WT (SPR) [3]: 1.77 fold
Fold WT (AlphaScreen) [4]: 0.64 fold

B5: T260H alemtuzumab (antibody)
chain 1: not shown
chain 2: not shown
Fold WT (SPR) [5]: 1.86 fold
Fold WT (AlphaScreen) [6]: 1 fold

B6: E283H alemtuzumab (antibody)
chain 1: not shown
chain 2: not shown
Fold WT (AlphaScreen or SPR) [1]: 2.31 fold
